In patent US9266964:
Residue numbers refer to the chain shown, from its start.

B1: M28-D12 (Fab, V domains shown)
VH: EVQLLESGGGLVQPGGSLRLSCAASGFTFSWYTMHWVRQAPGKGLEWVSVIYPSGGPTSYADSVKGRFTISRDNSKNTLYLQMNSLRAEDTATYYCARDGSGSYLGFDYWGQGTLVTVSS
VL: DIQMTQSPSSLSASVGDRVTITCRASQSIATYLNWYQQKPGRAPKLLIYAASSLQSGVPSRFVGGGSGSGTHFTLTISSLQPEDFATYYCQQSYSTRETFGQGTKVEIK
notes: Fab fragment (E. coli TG1); printed HC runs into the start of CH1
B2: M76-G06 (Fab, V domains shown)
VH: EVQLLESGGGLVQPGGSLRLSCAASGFTFSGYIMHWVRQAPGKGLEWVSWIYPSGGWTEYADSVKGRFTISRDNSKNTLYLQMNSLRAEDTAVYYCARDAPGVGAIDYWGQGTLVTVSS
VL: DIQMTQSPSSLSASVRDRVTITCRASQSISTYLNWYQQKPGEAPKLLVFAASSLQSGVPSRFSGSGSGTDFTLSISSLQPEDFATYYCQQSYSTPHTFGQGAKVEIK
notes: as for B1
B3: M29-G08 (Fab, V domains shown)
VH: EVQLLESGGGLVQPGGSLRLSCAASGFTFSYYHMWWVRQAPGKGLEWVSGISPSGGFTFYADSVKGRFTISRDNSKNTLYLQMNSLRAEDTAVYYCARDYYYDSSGYSPLGYWGQGTLVTVSS
VL: DIQMTQSPATLSASPGETVTLSCRASQNIGNDVAWYRQRPGQAPRLLIHHASTRAYGIPARLRGSGSATEFTLTITSLEPEDFAIYYCQQFYDWPAHTFALGTRLEIKR
notes: as for B1
B4: M29-G10 (Fab, V domains shown)
VH: EVQLLESGGGLVQPGGSLRLSCAASGFTFSFYKMIWVRQAPGKGLEWVSSISSSGGSTQYADSVKGRFTISRDNSKNTLYLQMNSLRAEDTAVYYCARDRVDLGYLDYWGQGTLVTVSS
VL: DIQMTQSPSSLSSSVGDSATITCRASQSISIYLNWYQQKPGKAPKILIYGASQLESGVPSRFSGSGSGTDFTLTVSGLQPEDFATYWCQQSYNVPYTFGQGTKLEIK
notes: as for B1
B5: M28-E01 (Fab, V domains shown)
VH: EVQLLESGGGLVQPGGSLRLSCAASGFTFSSYPMGWVRQAPGKGLEWVSRISSSGGMTIYADSVKGRFTISRDNSKNTLYLQMNSLRAEDTAVYYCARDDWNVGMDVWGQGTTVTVSS
VL: DIQMTQSPSSLSASVGDRVTITCRASQSISSYLNWYQQKPGKAPKLLIYAASSLQSGVPSKFSGSGSGTDYTLTISSLQPEDFATYYCQQTYTTPWTFGQGTKVEIK
notes: as for B1
B6: M77-C07 (Fab, V domains shown)
VH: B2 VH with G31L, H35G, W50G, W57F, E59M, D99E, A100S, P101S, G104A, I106P
VL: B5 VL with S10T, S28N, K61R, Y71F, Y87S, T91S, T93S, W96R
notes: as for B1
B7: M76-G02 (Fab, V domains shown)
VH: EVQLLESGGGLVQPGGSLRLSCAASGFTFSLYAMWWVRQAPGKGLEWVSYISSSGGFTSYADSVKGRFTISRDNSKNTLYLQMNSLRAEDTAVYYCARYRVGVAATDYWGQGTLVTVSS
VL: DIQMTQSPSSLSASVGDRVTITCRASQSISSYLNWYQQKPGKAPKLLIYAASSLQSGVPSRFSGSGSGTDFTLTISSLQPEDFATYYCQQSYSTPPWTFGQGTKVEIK
notes: as for B1
B8: M29-C07 (Fab, V domains shown)
VH: EVQLLESGGGLVQPGGSLRLSCAASGFTFSGYDMMWVRQAPGKGLEWVSVISSSGGNTAYADSVKGRFTISRDNSKNTLYLQMNSLRAEDTAVYYCARESSGLYYFDYWGQGTLVTVSS
VL: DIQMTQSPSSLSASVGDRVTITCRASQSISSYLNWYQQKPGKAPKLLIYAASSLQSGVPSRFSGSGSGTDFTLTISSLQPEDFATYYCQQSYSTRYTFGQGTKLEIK
notes: as for B1
B9: M76-F02 (Fab, V domains shown)
VH: EVQLLESGGGLVQPGGSLRLSCAASGFTFSLYDMNWVRQAPGKGLEWVSGISPSGGQTMYADSVKGRFTISRDNSKNTLYLQMNSLRAEDTAVYYCARQPMISAFDIWGQGTMVTVSS
VL: DIQMTQSPSSLSASVGDRVTITCRASQTIDNYLHWYQQKPGKAPKVLIHDASSLQSGVPPRFSGSGSGTDFTLTISSLQPEDFATYYCQQSYDTPQYTFGQGTKLEIK
notes: as for B1
B10: M28-F07 (Fab, V domains shown)
VH: EVQLLESGGGLVQPGGSLRLSCAASGFTFSDYTMYWVRQAPGKGLEWVSSIVPSGGHTLYADSVKGRFTISRDNSKNTLYLQMNSLRAEDTAVYYCAKDHLSSWYGGFFDYWGQGTLVTVSS
VL: DIQMTQSPSSVSASVGDRVTITCRASQGISSWLAWYQQKPGKAPKLLIYATSGLQSGVPSRFSGSGSGTDFTLTISSLQPEDFATYYCQQAKSFPLTFGGGTRVEIK
notes: as for B1
B11: M28-D02 (Fab, V domains shown)
VH: EVQLLESGGGLVQPGGSLRLSCAASGFTFSWYPMQWVRQAPGKGLEWVSYIYPSGGGTDYADSVKGRFTISRDNSKNTLYLQMNSLRAEDTATYYCATSSGWLGDAFDIWGQGTMVTVSS
VL: DIQMTQSPSSLSASEGDMVTITCRTSRRIGTYLNWYQQKPGKAPKLLIYGASSLQSGVPSRFSGSGSGTDFTLTVSSLQPEDVGTYYCQQSFSSPWTFGPGTKVEIK
notes: Fab fragment (E. coli TG1); printed HC runs into the start of CH1; The LC is printed with an amber codon 'q' (QDIqMTQ), written here as Q
B12: M76-H02 (Fab, V domains shown)
VH: B11 VH with W31M, P33W, G57P, D59K, T93V, T98R, S99P, W102S, L103Y
VL: DIQMTQSPSSLSASEGDRVTITCRASQDISVYLNWYQMKSGKAPKLLIYGGASLQSGVPARFSGSGYGTDFTLTITDLRPEDFATYYCQQSYSLPFTFGGGTKVEIK
notes: as for B1
B13: M77-H04 (Fab, V domains shown)
VH: EVQLLESGGGLVQPGGSLRLSCAASGFTFSYYTMIWVRQAPGKGLEWVSGIRSSGGGTRYADSVKGRFTISRDNSKNTLYLQMNSLRAEDTAVYYCAKDGSRYSYGSIYYYYGMDAWGQGTTVTVSS
VL: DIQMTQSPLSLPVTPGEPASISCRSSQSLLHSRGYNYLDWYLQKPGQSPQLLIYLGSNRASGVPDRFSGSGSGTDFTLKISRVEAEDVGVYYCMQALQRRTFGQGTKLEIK
notes: as for B1
B14: M29-D10 (Fab, V domains shown)
VH: EVQLLESGGGLVQPGGSLRLSCAASGFTFSWYPMYWVRQAPGKGLEWVSSIGSSGGPTPYADSVKGRFTISRDNSKNTLYLQMNSLRAEDTAVYYCARWADYGGSLDYWGQGTLVTVSS
VL: DIQMTQSPSSLSASVGDTVSITCRASQSITIYLNWYQHKPGKAPNLLIYGASNLHSGVPSRFSGSGSGTDFTLTISSLQPEDFATYYCQQSYDTPLTFGGGTKVEIK
notes: as for B1
B15: M28-E11 (Fab, V domains shown)
VH: EVQLLESGGGLVQPGGSLRLSCAASGFTFSLYDMTWVRQAPGKGLEWVSGISSSGGVTIYADSVKGRFTISRDNSKNTLYLQMNSLRAEDTAVYYCARTYYYDSSGYADAFDIWGQGTMVTVSS
VL: DIQMTQSPSSVSASVGDRVTINCRASQDISNWLAWYQQKPGKAPNLLIYAASSLQTGAPSRFSGSGSGTDFTLTISSLQPEDFGTYVCQQSYSLPWTFGLGTKVEVR
notes: as for B1
B16: M74-A07 (Fab, V domains shown)
VH: EVQLLESGGGLVQPGGSLRLSCAASGFTFSQYLMMWVRQAPGKGLEWVSSIYPSGGYTSYADSVKGRFTISRDNSKNTLYLQMNSLRAEDTAVYYCARVSTAVADNDYWGQGTLVTVSS
VL: DIQMTQSPSSLSASVRDRVTITCRTSQNINTYLNWYYQAPGRAPKLLIFGVSSLHRGVSSRFSGSGDGTEFTLTISSLQPEDIGTYFCQQSYSSPWTFGQGTKVEIK
notes: as for B1

target: T1, human plasma kallikrein (human, UniProt P03952 20-390; P03952 391-638); experiment: ELISA; signal on coated biotinylated human plasma kallikrein divided by signal on streptavidin; Fab
T1 construct: two disulfide-linked chains; also called pKal; human pKal
T1 sequence (P03952 20-390, chain 1 of 2): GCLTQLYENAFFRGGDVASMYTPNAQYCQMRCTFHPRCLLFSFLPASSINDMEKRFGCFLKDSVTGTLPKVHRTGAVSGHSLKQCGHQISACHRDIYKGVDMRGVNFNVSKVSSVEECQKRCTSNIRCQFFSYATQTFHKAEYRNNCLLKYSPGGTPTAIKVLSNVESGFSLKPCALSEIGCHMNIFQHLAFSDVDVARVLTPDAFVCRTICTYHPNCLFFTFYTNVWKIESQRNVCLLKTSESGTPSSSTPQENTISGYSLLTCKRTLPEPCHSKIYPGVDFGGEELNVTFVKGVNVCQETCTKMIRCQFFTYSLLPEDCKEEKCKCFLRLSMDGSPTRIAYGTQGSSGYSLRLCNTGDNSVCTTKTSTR
T1 sequence (P03952 391-638, chain 2 of 2): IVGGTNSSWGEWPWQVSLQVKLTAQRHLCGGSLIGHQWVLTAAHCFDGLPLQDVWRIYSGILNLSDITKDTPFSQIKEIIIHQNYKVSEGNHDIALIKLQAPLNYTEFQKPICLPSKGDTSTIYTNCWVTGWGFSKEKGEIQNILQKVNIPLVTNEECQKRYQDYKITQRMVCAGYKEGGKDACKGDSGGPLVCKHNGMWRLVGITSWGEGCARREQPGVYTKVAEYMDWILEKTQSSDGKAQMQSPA
From the text: Abbreviations used: "T/B" is the ELISA signal obtained using of the target (biotinylated plasma kallikrein) divided by the ELISA signal of the "background" (streptavidin); both of which were coated on microtiter plates. "nd" is not determined. The symbol "q" refers to the amber suppressible stop codon (TAG), which is translated as glutamine (Q) in strains of E. coli such as the TG1 cells that were used to express the Fab fragments.

In order of falling “Human pKal ELISA (T/B)” value:
1. B1  41.6 T/B (target signal / background signal)
2. B5  41 T/B (target signal / background signal)
3. B3  40.4 T/B (target signal / background signal)
4. B10  33 T/B (target signal / background signal)
5. B15  29.3 T/B (target signal / background signal)
6. B14  23.6 T/B (target signal / background signal)
7. B4  16.4 T/B (target signal / background signal)
8. B6  16.1 T/B (target signal / background signal)
9. B12  13.4 T/B (target signal / background signal)
10. B2  11.8 T/B (target signal / background signal)
11. B7  10.3 T/B (target signal / background signal)
12. B16  8.6 T/B (target signal / background signal)
13. B13  7.6 T/B (target signal / background signal)
14. B9  6.4 T/B (target signal / background signal)
15. B8  5.2 T/B (target signal / background signal)
16. B11  3.7 T/B (target signal / background signal)
